Experimental data from patent CN113117073A.

How the values were obtained:
[1] = target: PD-L1 (antigen of the indirect ELISA for titre; not specified); assay: indirect ELISA, ascites antibody
[2] = target: 人PD-L1-His (human) (UniProt Q9NZQ7); assay: SPR; PD-L1-His captured by anti-His antibody on a CM5 chip, antibody as analyte 0-1000 nmol/L, 1:1 binding fit

PD-L1 (antigen of the indirect ELISA for titre; not specified), sequence (Q9NZQ7 whole entry): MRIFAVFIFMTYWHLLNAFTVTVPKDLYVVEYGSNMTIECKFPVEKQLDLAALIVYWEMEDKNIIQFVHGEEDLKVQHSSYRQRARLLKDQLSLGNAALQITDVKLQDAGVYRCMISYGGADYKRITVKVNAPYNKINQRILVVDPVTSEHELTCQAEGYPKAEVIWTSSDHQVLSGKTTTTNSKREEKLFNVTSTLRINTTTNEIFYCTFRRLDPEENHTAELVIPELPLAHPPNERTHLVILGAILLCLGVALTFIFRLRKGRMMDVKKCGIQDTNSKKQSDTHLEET

腹水效价 (ascites titre) (titre (1:x dilution)) [1]: 2.56e+06 | Kd [2]: 4.19 nM
B1: PD-L1单克隆抗体 1A7 (antibody, part only; not given: light chain variable domain, V domains shown, part only)
VH: EVKLVESGGGLVKPGGSLKLSCAASGFTFSQTTMAWVRQIPEKRLEWVASIEEGGSCCFPDSALSRFTISRDNARNICYLQMNSLRSDDTAMYYCARAREACAGYFARWGQGTTLTVSS
